Measured values: patent publication US20020051974
Read-outs that look alike come from different tables or passages of the source.

Legend:
[1] = system: T1, VEGF (vascular endothelial growth factor), P15692-4; experiment: filter; details: 50% of RNA bound, PBS
T1 sequence: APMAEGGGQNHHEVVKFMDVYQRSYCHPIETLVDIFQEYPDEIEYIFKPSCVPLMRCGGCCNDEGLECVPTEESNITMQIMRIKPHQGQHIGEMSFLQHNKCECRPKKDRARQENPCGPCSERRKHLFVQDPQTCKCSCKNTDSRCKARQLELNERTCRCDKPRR

[2] = system: T1, VEGF (vascular endothelial growth factor), P15692-4; details: CITED Jellinek et al 1994, cited from earlier work

GGGAAUGGAUCCACAUCUACGAAUUCCGCGCACGUCACGGGCCGACACGAAUAUGGUUCACUGCAGACUUGACGAAGCUU [V10]
EC50 ([1]; 1 mM MgCl2, room temperature): 31.4 nM

GGGAGCUCAGAAUAAACGCUCAAACGGUUCUGUGUGUGGACUAGCCGCGGCCGUUCGACAUGAGGCCCGGAUCCGGC [VEGF126 (RNA transcript of printed DNA)]
EC50 ([1]; 1 mM MgCl2, room temperature): 19.9 nM
Kd ([2]; unit not repeated for this value): 0.14 nM

GGGAAUGGAUCCACAUCUACGAAUUCCGCGCACGUAGGUUGGGUGUAACUGCGUUGUUCACUGCAGACUUGACGAAGCUU [V05]
EC50 ([1]; 1 mM MgCl2, room temperature): 15.3 nM

GGGAAUGGAUCCACAUCUACGAAUUCGAUGGCGUUAGUGGGAAUGAUUCUGCCGAGUUCACUGCAGACUUGACGAAGCUU [V07]
EC50 ([1]; 1 mM MgCl2, room temperature): 17.3 nM

GGGAAUGGAUCCACAUCUACGAAUUCUGUAAGAUUGGUCUCCAGACUGCCGAGCUGUUCACUGCAGACUUGACGAAGCUU [V18]
EC50 ([1]; 1 mM MgCl2, text gives 8.5): 8.52 nM

GGGAGCUCAGAAUAAACGCUCAAGACCCAUCGUCAACGGUUGAGUCUGUCCCGUUCGACAUGAGGCCCGGAUCCGGC [VEGF40 (RNA transcript of printed DNA)]
EC50 ([1]; 1 mM MgCl2, room temperature): 4.15 nM
Kd [2]: 0.19 nM

GGGAAUGGAUCCACAUCUACGAAUUCAGGCAGCGUAGAGGGUUCACUCUGCCGAGUUUCACUGCAGACUUGACGAAGCUU [V01]
EC50 ([1]; 1 mM MgCl2, room temperature): 19 nM

GGGAAUGGAUCCACAUCUACGAAUUCGGGAACAGCUCUAUUCCGCGCACGUUUGAGUUCACUGCAGACUUGACGAAGCUU [V04]
EC50 ([1]; 1 mM MgCl2, room temperature): 4.52 nM

GGGAAUGGAUCCACAUCUACGAAUUCCGCGCACGUAGGUUGGGUGUAACUGCGUUGUUCACUGCAGACUUGACGAAGCUU [V06]
EC50 ([1]; 1 mM MgCl2, printed sequence identical to V05): 36.9 nM

GGGAAUGGAUCCACAUCUACGAAUUCCGUUCUGCCGAGACUGCACGUGUGCUUGAAUUCACUGCAGACUUGACGAAGCUU [V09]
EC50 ([1]; 1 mM MgCl2, room temperature): 24.2 nM

GGGAAUGGAUCCACAUCUACGAAUUCGGAUAUUCCGCGCACGUCAUUUCAUCAGCUUUCACUGCAGACUUGACGAAGCUU [V19]
EC50 ([1]; 1 mM MgCl2, room temperature): 7.61 nM

GGGAAUGGAUCCACAUCUACGAAUUCCGCGCGCGCUAACCUUGNGGNGNAAGUAUGUUCACUGCAGACUUGACGAAGCUU [V13]
EC50 ([1]; 1 mM MgCl2, sequence contains N): 8.32 nM

GGGAAUGGAUCCACAUCUACGAAUUCUUUGAAGAGGGUCAAUCCGCGCACGUUACGUUCACUGCAGACUUGACGAAGCUU [V03]
EC50 ([1]; 1 mM MgCl2, room temperature): 32.6 nM

GGGAAUGGAUCCACAUCUACGAAUUCGAGGGUCCGUCUGCCGAGUCUUGUAACACCUUCACUGCAGACUUGACGAAGCUU [V02]
EC50 ([1]; 1 mM MgCl2, room temperature): 21.3 nM

GGGAAUGGAUCCACAUCUACGAAUUCAGGUGGAAAGCAAGUUCCGCGCACGUUAAUUUCACUGCAGACUUGACGAAGCUU [V08]
EC50 ([1]; 1 mM MgCl2, room temperature): 14.4 nM
